One data set addresses (FAM)-AWFHVEED peptide. The experiment in a line: fluorescence polarisation. (Polarisation of emitted light reports the rotation of a fluorescent probe.)
Data set [1] deals with WFHVEED peptide (synthetic construct). Nature of the data set: fluorescence polarization. The note with it: cited from earlier work.
The target in another data set is T1, CA150 FF1-3 wild-type (human, UniProt O14776 661-845).
T1 sequence: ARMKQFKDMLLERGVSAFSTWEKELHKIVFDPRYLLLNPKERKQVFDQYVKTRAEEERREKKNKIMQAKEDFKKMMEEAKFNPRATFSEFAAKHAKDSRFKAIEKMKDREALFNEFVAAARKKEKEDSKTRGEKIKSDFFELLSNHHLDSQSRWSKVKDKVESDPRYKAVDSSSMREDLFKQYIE
Nature of the data set: fluorescence polarization.

A further data set has as its target T2, GST-CA150 FF1-3 (human, UniProt O14776 661-845).
T2 sequence: T1 sequence
The experiment in a line: fluorescence polarization.

The target in data set [2] is T3, CA150 FF1-3 (human CA150 residues 661-845), GST cleaved off (human, UniProt O14776 661-845).
T3 sequence: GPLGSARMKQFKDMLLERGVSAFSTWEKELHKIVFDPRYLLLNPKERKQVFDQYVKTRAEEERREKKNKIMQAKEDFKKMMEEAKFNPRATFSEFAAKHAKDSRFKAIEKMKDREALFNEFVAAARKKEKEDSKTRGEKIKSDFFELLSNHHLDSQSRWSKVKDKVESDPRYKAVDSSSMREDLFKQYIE
The experiment in a line: fluorescence polarisation.

Where no end group is shown, it is not given here. The star is where a group is joined. 5FAM = O=C1OC2(c3ccc(O)cc3Oc3cc(O)ccc32)c2ccc(C(=O)*)cc21

Consider 4 molecules from publication PMC3319151 (Journal of Molecular Biology, 2009).

As usually defined, the Kd is the free concentration of one partner at which half of the binding sites on the other are occupied at equilibrium, for simple one-to-one binding.

For GST alone, in the data set with (FAM)-AWFHVEED peptide, the Kd is greater than 740 µM.

As to “CA150 (GST-FF1-3) FF1-3 (from UniProt O14776)”, the dissociation constant (Kd) in data set [1] is 48 µM.

B1: MATa1/MATalpha2 duplex of Ke et al. (dsDNA)
DNA 1: ACATGTAAAAATTTACATCA
DNA 2: TTGATGTAAATTTTTACATG
With B1, the Kd in the data set with CA150 FF1-3 wild-type stood at 3.87 ± 0.31 µM; with GST-CA150 FF1-3, 520 ± 60 nM.

B2: (FAM)-AWFHVEED peptide (peptide)
peptide: 5FAM-AWFHVEED
B2 registered a Kd in data set [2] greater than 400 µM.
